Test results reported in the supplement of paper PMC9732359.
± gives the uncertainty stated by the source.

test: protein stability index of a GFP-peptide fusion (yeast GPS) (PSI 1-4); higher = more stable; sorted into four equal gates, so the index is relative within each strain; details: doa10∆
Procedure, shortened: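 The protein stability index combines read frequencies across sorting gates, each weighted by its gate number and then summed. To obtain those frequencies, a pooled yeast library of GFP fusions to tiled 17-residue yeast protein peptides, on a plasmid also expressing Cherry, was grown to mid-log phase in leucine-free medium. The cells were sorted into four equal gates by GFP/Cherry ratio before plasmid amplification by PCR and Illumina sequencing.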

Sequence LKKANIIYHTTFSWLNA [YLR018C/POM34] has a protein stability index of 2.46 ± 0.043.

same assay, conditions: pdr5∆

KYIVKASSGPRYIVGVR [RPT4] and KYMVKGGLSGEESIKIY [UBP6] are within error of each other in protein stability index: 2.66 ± 0.13 for the first, 2.47 ± 0.1 for the second.

Compared with KYQKALHYLKKFKHIDD [SRP72], KYREGQVLFQGLIYSFN [POP1] is lower in protein stability index: 2.96 ± 0.12 for the first, 2.11 ± 0.081 for the second.

First: KYRPETAAEKKERLTKE [RPL8A]
Second: LADDLITKMLASDESLL [RPN2]
The protein stability index of the first is higher: 2.76 ± 0.076 for the first, 2.29 ± 0.14 for the second.

First: LAEIKKTPLLKQYLSAS [RPL6B]
Second: LAFAKLVHSEYLINGKR [SRP68]
The protein stability index of the first is lower: 1.55 ± 0.049 for the first, 2.5 ± 0.056 for the second.

Going from LAFKKNEMLLKRVTKVK [MTW1] to LAGMDVEDALDKDSTKE [FAS2], the protein stability index rises from 2.03 ± 0.052 to 3.72 ± 0.19.

Going from LAIDNMYILGMCVSKGN [YCG1] to LAKYRDAGKIDKHLYHV [RPL19A], the protein stability index rises from 2.02 ± 0.061 to 3.39 ± 0.15.

Going from LALENGEITKTENEKFI [NUT1] to LALMTAHSLSPKDYIKK [CDC53], the protein stability index falls from 3.45 ± 0.11 to 3.03 ± 0.059.

First: LAMEAILNELEVFIGRV [YJR042W/NUP85]
Second: LANWFLEVYASGNPNAT [YML031W/NDC1]
The protein stability index of the first is higher: 2.93 ± 0.14 for the first, 2.17 ± 0.046 for the second.

Going from LAQTLKLWRKIARLYSC [RRI2] to LARACAAQTNATFLKLA [RPT5], the protein stability index rises from 1.21 ± 0.058 to 2.93 ± 0.089.

LASEVGDPALVYKFMSL [ECM29] and LATYCPRVQGFYVPQAR [GRR1] are the same in protein stability index: 2.4 ± 0.067 for the first, 2.4 ± 0.069 for the second.

LAVLALVIVKKGEQELE [RPS6A] and LAYRNYWTQYLGLFIHK [YJL039C/NUP192] are the same in protein stability index: 1.56 ± 0.045 for the first, 1.56 ± 0.037 for the second.

First: LCKTKMVCETDVPSEDD [RPO21]
Second: LDALTRHIKSKHEDLSL [RPN4]
The protein stability index of the first is higher: 3 ± 0.093 for the first, 2.08 ± 0.068 for the second.

Going from LDDPEAVSKDPLLTKRK [DIS3] to LDDTTIPVGLMAQENSM [MCD1], the protein stability index falls from 3.44 ± 0.1 to 1.84 ± 0.093.

Going from LDIGLQRTTTGARVFGA [RPL5] to LDIKRVGSENVECTISI [SNF12], the protein stability index rises from 1.29 ± 0.096 to 2.78 ± 0.066.

First: LDKDSSQSSAAAGASVD [RPN6]
Second: LDNSKMDYHFIFSYLQF [RGR1]
The protein stability index of the first is higher: 3.42 ± 0.078 for the first, 1.72 ± 0.056 for the second.

First: LDSLMKTTRLLLIIRSL [YJL039C/NUP192]
Second: LDSNNNNSNSNNNDNNN [SWI1]
The protein stability index of the first is lower: 1.39 ± 0.039 for the first, 2.74 ± 0.039 for the second.

First: LEACIVRIMKAKRNLPH [CDC53]
Second: LEAKRKVSSAEYYAKKR [RPL16A]
The protein stability index of the first is lower: 1.61 ± 0.059 for the first, 3.3 ± 0.11 for the second.

First: LEALRQNYRLDGRSFDQ [RRP45]
Second: LEDDSLLSYPIKLDRWL [RPN12]
The protein stability index of the first is lower: 1.97 ± 0.12 for the first, 2.87 ± 0.057 for the second.

Going from LEDFENFKGLAKEKERM [YIL149C/MLP2] to LEDLFSYRNGMASYMLN [YJR042W/NUP85], the protein stability index falls from 3.51 ± 0.085 to 1.25 ± 0.15.

Going from LEEEFVSNSEILKPFEK [RPT2] to LEEKILAKKTHKQELQD [SMC4], the protein stability index rises from 2.88 ± 0.054 to 3.21 ± 0.074.

LEEQQQLEDESSRLEFV [YML103C/NUP188] and LEGETDPLRIAMKELAE [RPO26] are within error of each other in protein stability index: 3.3 ± 0.086 for the first, 3.34 ± 0.057 for the second.

Going from LEGITTTIDSLNAELES [SMC3] to LEHDVEYRPFSKKVLEC [DIS3], the protein stability index rises from 1.77 ± 0.15 to 3.6 ± 0.1.

LEIAKDFQPTELFDILS [IRR1] and LEIASSIDCLLILILVI [SWI1] are within error of each other in protein stability index: 2.33 ± 0.11 for the first, 2.24 ± 0.046 for the second.

First: LEKIHSIEVQSLPEFFT [SWI3]
Second: LEKKGFSEVYEYNRLKV [LIN1]
The protein stability index of the first is lower: 2.53 ± 0.073 for the first, 3.18 ± 0.25 for the second.

Going from LERFNKRADISKRRITE [SMC1] to LESFQAVYNKLTGKQIV [RPS7A], the protein stability index falls from 2.7 ± 0.074 to 1.32 ± 0.044.

First: LESSITDAGVLALKLEL [YJL039C/NUP192]
Second: LETILEEFRNLAALNVW [SSN2]
The protein stability index of the first is lower: 1.48 ± 0.061 for the first, 2.98 ± 0.1 for the second.

First: LETLFNRWHSESWANQL [FAS2]
Second: LFGNNNTNNINNSSSGM [YGL172W/NUP49]
The protein stability index of the first is lower: 2.89 ± 0.076 for the first, 3.42 ± 0.14 for the second.

Compared with LFHSCTRIQYVDFACCT [GRR1], LFKTLFKKLTKDIFRYM [RPB2] is lower in protein stability index: 2.44 ± 0.067 for the first, 1.53 ± 0.059 for the second.

Compared with LFNESFIMASVGKYDKA [SRP72], LFRAIYLYCLDNNITEM [YCG1] is lower in protein stability index: 2.85 ± 0.27 for the first, 2.09 ± 0.044 for the second.

Compared with LFYFDSSFRPCPLSQQF [BRR2], LGDKELWPVAIGLIALS [YJR042W/NUP85] is lower in protein stability index: 1.89 ± 0.051 for the first, 1.65 ± 0.15 for the second.

Compared with LGDMENNLEKYPFRYKT [RTT102], LGHKELKVRKGHIAKLM [RPB2] is lower in protein stability index: 3.39 ± 0.055 for the first, 2.53 ± 0.064 for the second.

First: LGKFKNIIASPLSAGFN [SIN4]
Second: LGKVRFANYKLLLKKII [SRB4]
The protein stability index of the first is higher: 1.94 ± 0.05 for the first, 1.62 ± 0.05 for the second.

LGKWYSKEDYETLKRDR [ARP7] and LGLGIAFAGSKNDEVLG [RPN1] are within error of each other in protein stability index: 2.75 ± 0.2 for the first, 2.94 ± 0.15 for the second.

First: LGNTVSTQPSFAWSKPS [YGR119C/NUP57]
Second: LGNVIVPNILSLDMNSM [NUT1]
The protein stability index of the first is higher: 2.84 ± 0.056 for the first, 2.17 ± 0.058 for the second.

Compared with LGRDYPIEVDEELLQLF [IRR1], LGRVRNHFIFNVESAGA [RPC40] is lower in protein stability index: 1.99 ± 0.24 for the first, 1.5 ± 0.069 for the second.

Compared with LGSKKELGISLEHPYGK [SNU114], LGVEDITLIDSASLHLN [RET1] is lower in protein stability index: 2.99 ± 0.13 for the first, 1.61 ± 0.043 for the second.

Compared with LGWIHTQTEELKFMAAS [PRP8], LHGNAKKAAEEAGVTDV [FAS2] is higher in protein stability index: 2.62 ± 0.077 for the first, 3.18 ± 0.12 for the second.

First: LHIHGSSNPLGITGNLD [COB]
Second: LHPQLHEVQYQESSSTL [SIN4]
The protein stability index of the first is higher: 2.91 ± 0.078 for the first, 2.5 ± 0.041 for the second.

LHPYVPSSKPQEQVYPD [SRB8] and LHVVSKSSIEKDPSPEI [SIN4] are within error of each other in protein stability index: 2.92 ± 0.12 for the first, 3.03 ± 0.066 for the second.

Compared with LIAVYYSFGGLLMRLEG [RPB8], LIELLTQMDGFDQSTNV [RPT3] is lower in protein stability index: 2.79 ± 0.076 for the first, 2.19 ± 0.075 for the second.

Going from LIETVFVKNIRMLSFED [RPN9] to LIFIACNDEDKDLETLY [ECM29], the protein stability index rises from 1.89 ± 0.05 to 3.04 ± 0.067.

LIIVTRKNYMHVKNFGF [YML031W/NDC1] and LIKDNSAMVTTAAAADI [SRB2] are within error of each other in protein stability index: 1.52 ± 0.048 for the first, 1.78 ± 0.29 for the second.

Going from LIKNGKKVTAFVPNDGC [RPS23A] to LIKQVPRLLGPQLSKAG [RPL1A], the protein stability index falls from 3.31 ± 0.061 to 1.73 ± 0.06.

Compared with LIKTLSTLHMLGYTHIA [RPP1], LINEILLKSNDPLLSLY [RGR1] is lower in protein stability index: 2.65 ± 0.087 for the first, 2.15 ± 0.043 for the second.

LIQQVPPGLDALVKPET [CDC53] and LIRLQMEKLDAKLNHLK [SWI3] are within error of each other in protein stability index: 2.98 ± 0.13 for the first, 3.04 ± 0.15 for the second.

Compared with LISGKAGVLNGTLEYGT [RET1], LISLIMTTWRKLYTKEL [YMR129W/POM152] is lower in protein stability index: 3.03 ± 0.062 for the first, 1.15 ± 0.093 for the second.

Going from LISRMIFIATQLEKKIR [BRR2] to LKALSHHYNPKTKKLNL [BRR2], the protein stability index rises from 1.9 ± 0.059 to 2.4 ± 0.086.

Going from LKEILNVAKNMKTPSLT [RPO21] to LKESYSQKHNGRILKWL [CDC53], the protein stability index falls from 3.06 ± 0.11 to 2.69 ± 0.057.

Compared with LKETVIPSLANNGNNST [POP6], LKFAVQVDKVTKEKVNG [RPL26A] is higher in protein stability index: 3.01 ± 0.065 for the first, 3.4 ± 0.16 for the second.

LKFNSTEYRGTLVSTDN [SMX3] and LKFVKVRVRTTKIPQIG [RPB2] are within error of each other in protein stability index: 2.59 ± 0.049 for the first, 2.55 ± 0.079 for the second.

LKGLNGFPSAPQPLFME [YMR153W/NUP53] and LKGRVVEVCLADLQGSE [RPS1A] are within error of each other in protein stability index: 3.04 ± 0.066 for the first, 3.08 ± 0.071 for the second.
